In patent US6436654B1, “Methods for identifying compounds that modulate HIF-1α” (Pharmacia & Upjohn AB, priority 1998, dated 2002):

Key:
[1] = tested on: GAL4 responsive reporter plasmid; assay: Cotransfection of GAL4-HIF-1α fusion proteins with GAL4 responsive luciferase reporter; assay type: cell-based, simian; details: for stimulation of GAL4 reporter activity by coexpressed CBP / stimulation of GAL4 reporter activity by coexpressed SRC-1: hypoxic conditions, vs hypoxia without exogenous coactivator; for GAL4 reporter transcriptional activity (in words): with or without CBP / SRC-1
Source text: To analyze functional activities of HIF-1α independently of the endogenous DNA binding and dimerization domains and the Arnt partner, we next fused HIF-1α to the heterologous DNA binding domain of GAL4. Functional activity of the fusion protein was monitored in COS7 cells by a cotransfection assay using a reporter gene construct carrying five GAL4 DNA binding elements in front of thymidine kinase promoter and the luciferase gene. Six hours after transfection media was changed, and cells were either left uninduced or exposed to 1% oxygen for 30 h prior to harvest. In the presence of either empty expression vector or a vector expressing the minimal GAL4 DNA binding domain, reporter gene activity was unaltered by reduced oxygen levels. […] The GAL4 DNA binding domain is known to harbor an NLS motif capable of taking fusion proteins to the nucleus (Ma and Ptashne (1987) Cell 51, 113-119). We therefore used antibodies directed against the DNA binding domain of GAL4 to examine in both normoxic and hypoxic cells the intracellular localization of the GAL4-HIF-1α fusion protein by immunofluorescence.
Transcriptional activity of GFP and GAL4 fusion constructs was analyzed in a cotransfection assay where effector plasmids (0.2 μg/30-mm dish) together with a reporter gene (1.5 μg/30-mm dish) were introduced into COS7 or HeLa cells. The reporter plasmid encoded firefly luciferase gene under the control of thymidine kinase minimal promoter and either five or three copies of GAL4 or HIF-responsive elements, respectively.

GST/Ref-1 = GST/Ref-1 (Homo sapiens, UniProt P27695); assay: Pull-down of [35S]methionine-labeled GAL4/HIF proteins with GST/Ref-1; assay type: binding; details: presence or absence of diamide
GST/Ref-1, sequence (P27695 whole entry, species assumed, the tested form may be a part): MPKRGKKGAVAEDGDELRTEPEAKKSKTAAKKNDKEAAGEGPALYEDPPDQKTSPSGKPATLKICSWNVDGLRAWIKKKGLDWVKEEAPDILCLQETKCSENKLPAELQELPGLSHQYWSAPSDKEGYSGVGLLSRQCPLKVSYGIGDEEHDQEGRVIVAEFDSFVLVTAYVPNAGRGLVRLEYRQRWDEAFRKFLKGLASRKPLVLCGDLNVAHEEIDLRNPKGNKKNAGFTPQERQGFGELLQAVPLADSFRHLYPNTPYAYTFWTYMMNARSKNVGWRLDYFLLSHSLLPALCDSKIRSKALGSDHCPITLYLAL
Description: The precise mechanism by which Ref-1 activates HIF-1α is not known. […] To further investigate whether Ref-1 could interact with HIF-1α, we tried to trap the interaction by using a crosslinking reagent such as diamide, which oxidizes cysteine sulfhydryls to disulfides. A series of experiments was performed with GST-tagged purified Ref-1. [^35S]methionine-labeled in vitro translated GAL4/HIF 1-826 was incubated with GST/Ref-1 in the presence or absence of diamide.
Next, we tried a series of pull-down experiments with [^35S]methionine-labeled in vitro translated GAL4/HIF […] and GAL4/HIF 531-584. […] An interaction between GAL4/HIF […] and GST/Ref-1 was also detected, and this interaction was enhanced in the presence of diamide. In excellent agreement with this observation the C-TAD contains two cysteine residues. […] Immunoblot analysis verified that the input concentrations of GST/Ref-1 or GST alone were similar.

hypoxia-dependent activation of GAL4 reporter gene activity ([1]; 1% O2 vs normoxia, no exogenous coactivator)	stimulation of GAL4 reporter activity by coexpressed CBP [1]	stimulation of GAL4 reporter activity by coexpressed SRC-1 [1]	binding to GST/Ref-1 (in words) (GST/Ref-1)	stimulation of hypoxia-dependent activation response by p300ΔHAT ([1]; absence of SRC-1, hypoxia)	Molecule	GAL4 reporter transcriptional activity (in words) [1]	regulation by Ref-1 and the coactivators (in words) ([1]; Ref-1, CBP and SRC-1)
about 2 fold	29 fold	17 fold	detected		GAL4/HIF 776-826: GAL4 fusion containing the carboxy-terminal transactivation domain of HIF-1α (SEQ ID NO: 14) (protein) MKLLSSIEQACDICRLKKLKCSKEKPKCAKCLKNNWECRYSPKTKRSPLTRAHLTEVESRLERLEQLFLLIFPREDLDMILKMDSLQDIKALLTGLFVQDNVNKDAVTDRLASVETDMPLTLRQHRISATSSSEESSNKGQRQLTVSSDLACRLLGQSMDESGLPQLTSYDCEVNAPIQGSRNLLQGEELLRALDQVN		
					GAL4/HIF 526-641: GAL4 fusion with N-terminal transactivation domain and proposed inhibitory sequence (protein) MKLLSSIEQACDICRLKKLKCSKEKPKCAKCLKNNWECRYSPKTKRSPLTRAHLTEVESRLERLEQLFLLIFPREDLDMILKMDSLQDIKALLTGLFVQDNVNKDAVTDRLASVETDMPLTLRQHRISATSSSEESSNKGQRQLTVSDMVNEFKLELVEKLFAEDTEAKNPFSTQDTDLDLEMLAPYIPMDDDFQLRSFDQLSPLESSSASPESASPQSTVTVFQQTQIQEPTANATTTTATTDELKTVTKDRMEDIKILIAS	complete abrogation of the effect of CBP and SRC-1	
					GAL4/HIF 776-813: GAL4 fusion of C-terminal transactivation domain lacking 13 most carboxy-terminal amino acids (SEQ ID NO: 15) (protein) MKLLSSIEQACDICRLKKLKCSKEKPKCAKCLKNNWECRYSPKTKRSPLTRAHLTEVESRLERLEQLFLLIFPREDLDMILKMDSLQDIKALLTGLFVQDNVNKDAVTDRLASVETDMPLTLRQHRISATSSSEESSNKGQRQLTVSSDLACRLLGQSMDESGLPQLTSYDCEVNAPIQGSRNLL	completely abrogated	showed no regulation by Ref-1 and the coactivators
	11 fold	1.5 fold	bound GST/Ref-1	2 fold	GAL4/HIF 531-584: GAL4 chimeric protein spanning the N-terminal transactivation domain of HIF-1α (SEQ ID NO: 13) (protein) MKLLSSIEQACDICRLKKLKCSKEKPKCAKCLKNNWECRYSPKTKRSPLTRAHLTEVESRLERLEQLFLLIFPREDLDMILKMDSLQDIKALLTGLFVQDNVNKDAVTDRLASVETDMPLTLRQHRISATSSSEESSNKGQRQLTVSFKLELVEKLFAEDTEAKNPFSTQDTDLDLEMLAPYIPMDDDFQLRSFDQLSPLE		
